Experimental data taken from paper doi:10.1101/2025.02.14.638281 (bioRxiv, 2025).
“And” between values parts separate entries of the source, which are not always exact repeats. Identical values can stand only once.

Biological target: the molecule itself
Assay: SEC

B1: Synechocystis sp. PCC 6803 fructose-1,6-bisphosphatase (FBPase; slr0952) (enzyme, UniProt P74324 1-347, looked up)
chain: MTVSEIHIPNSLLDRDCTTLSRHVLQQLNSFGADAQDLSAIMNRIALAGKLIARRLSRAGLMADVLGFTGETNVQGESVKKMDVFANDVFISVFKQSGLVCRLASEEMEKPYYIPENCPIGRYTLLYDPIDGSSNVDINLNVGSIFAIRQQEGDDLDGSASDLLANGDKQIAAGYILYGPSTILVYSLGSGVHSFILDPSLGEFILAQENIRIPNHGPIYSTNEGNFWQWDEALRDYTRYVHRHEGYTARYSGALVGDIHRILMQGGVFLYPGTEKNPDGKLRLLYETAPLAFLVEQAGGRASDGQKRLLDLIPSKLHQRTPAIIGSAEDVKLVESFISDHKQRQGN
stoichiometry N: 12 and 4
